From the RNAGym collection of RNA variant scans (doi:10.1021/acssynbio.7b00057)

B1: Pistol ribozyme (parent)
chain: GGGUCGUUGUUCCAUAAUCGCGUGGAUAUGGCACGCAAGUUUCUACCGGGCACCGUAAAUGUCCGACUGGAGCCGUUCGGGCGGCUAUAAACAGACCUCAGGCCCGAAGCGUGGCGGCACCUGCCGCCGGUGGUAAAAAAGAUCGGAAGAGCACACGUCU

Variants of: B1
Assay: aptazyme ON/OFF ratio, guanine; higher = stronger switching; co-transcriptional cleavage with and without guanine

Variant	aptazyme ON/OFF ratio
U7C U8A G9C U10C U11C C12A C13A	1.04
U7C U8G G9U U10G U11G	1.18
U7G U10A U11A C12A C13G	1.11
U7C U8G G9A U10G	2.11
U8A G9C U10C U11A C12A C13A	1.04
U7C U8G G9C U10C U11A C13A	1.21
G9A U10G C12U C13G	1.35
U7A U8G G9C U10G U11C C12U	1.07
G9U U10C U11C C12U C13U	1.18
U7G U8A G9U U10C U11A C12A	1.12
U7C G9A U10A C12G C13G	1.18
U7C G9U U10G U11A C12A	1.2
U7G U8A G9C U10G C12U C13U	1.06
U7C U8C G9U U11A C12U C13U	1.2
U8A G9C U10C U11C C12G C13A	1.01
U7C U8A G9A U10G C12G C13A	1.1
U7A U8G G9A U10A U11G C12U C13G	1.52
U7G U8C G9U U10A U11A C12G	1.6
U8C G9A U10G C12A C13G	1.1
U7G U8G G9A U10G U11G C12A C13U	1.17
G9C U11A C12U C13G	1.17

Variant	aptazyme ON/OFF ratio
U7A G9U U10A U11A C12G C13G	1.25
U7A U8C G9U U10C C12U C13G	1.09
U8G G9C U10C C12A C13U	1.05
U7G U8A G9U U10G U11A C12U C13U	1.02
G9C U10A U11A C12U C13G	1.14
U7A U8C G9U U10G U11G C12G C13A	1.15
U7G U8A G9A U10G U11A C12G C13G	1.29
U7C U8A G9U U10A U11A C12U	1.14
U7G G9U U10C U11G C12A C13U	1.16
U7A C12A C13U	1.22
U8G G9C U10C U11G	1.27
U7A U8A G9U C12U C13A	1.34
U7G U8C U10C U11G C13G	1.26
U7C U8A G9C U10G U11C C13G	1.05
U10A C12G C13U	1.47
U10A C12G C13A	1.4
U7A U8C G9A U10C U11G C12A C13U	1.14
U7G G9A U10C U11G C12U C13A	1.11
U8C G9A U10A U11C C12U C13U	1.14
U7C U8G G9A U10A U11G C12G C13A	1.19
U7A U10A U11G C12G C13G	1.11

Variant	aptazyme ON/OFF ratio
U7A U8C U10C C13A	1.08
U7C U8C G9A U11C C12G C13A	1.34
U11G C12A C13A	1.14
U7C U8A G9U U10A U11G C13U	1.17
U7A U8A G9C	1.22
U7A U8A G9A U10G U11G C13G	1.21
U7A U8A G9U C12G	1.45
U7A U10C U11A C12U C13U	1.26
U7C G9U U10A U11G C13G	1.02
G9U U10A U11G C12A	1.79
U7G U8A G9C U10G C12A	1.02
U7G U8G G9U U10A U11G C12U C13A	1.1
U7G U10A U11A	2.39
U8A G9A U11C C12G C13G	1.15
U7A U8C U11A C12A C13A	1.2
U7G U8G G9C U10C U11A C12G C13U	1.24
U7G G9A U10C C13A	1.11
U7A U8A U10G U11G C12U C13A	1.23
U7G G9C U10G U11C C12U	1.28
G9A U10A U11G C12U C13G	1.28
U7A U8C G9C U10C U11A C13A	1.07

Variant	aptazyme ON/OFF ratio
U7C U8A G9A U11A C13G	1.04
U7A U8A G9C U10G U11G	1.66
U7A U8C G9C U10G U11A C12G C13G	1.17
U7A U8G G9A U10G C12G C13A	1.5
U7C G9U U10C U11G	1.18
U7C U8C U10A U11C C13G	1.1
U7C U8A G9C U10A C13U	1.24
U7G U8C G9C U10G U11G C12G C13A	1.06
U7A U8C G9U U10G U11G C12U C13A	1.07
U7G U8G U10A U11C C13G	1.25
U8C G9C U11C C13A	1.11
U7A U8A G9A U10G C12G	1.32
U7C U8G G9A U10C U11C C13G	1.01
U7G U8C G9C U10C U11G C12A C13U	1.1
U7G U8G G9A U10A U11C C12U C13U	1.15
U8A U10A U11A C12U	1.09
U7G G9A U11C C12A C13G	1.14
U7C U8C G9C C12A	1.26
U7G U8C G9U U11A C13G	1.02
U7A G9C U10A U11A C12G	1.06
